In assay [1] the target is T1, Recombinant Rhesus macaque VEGFR2/KDR Protein, His tag (rhesus macaque).
T1 construct: Expressed in HEK293, bought from ACRO Biosystems; also called rhesus VEGFR2-his; rhesus VEGFR2
T1 chain: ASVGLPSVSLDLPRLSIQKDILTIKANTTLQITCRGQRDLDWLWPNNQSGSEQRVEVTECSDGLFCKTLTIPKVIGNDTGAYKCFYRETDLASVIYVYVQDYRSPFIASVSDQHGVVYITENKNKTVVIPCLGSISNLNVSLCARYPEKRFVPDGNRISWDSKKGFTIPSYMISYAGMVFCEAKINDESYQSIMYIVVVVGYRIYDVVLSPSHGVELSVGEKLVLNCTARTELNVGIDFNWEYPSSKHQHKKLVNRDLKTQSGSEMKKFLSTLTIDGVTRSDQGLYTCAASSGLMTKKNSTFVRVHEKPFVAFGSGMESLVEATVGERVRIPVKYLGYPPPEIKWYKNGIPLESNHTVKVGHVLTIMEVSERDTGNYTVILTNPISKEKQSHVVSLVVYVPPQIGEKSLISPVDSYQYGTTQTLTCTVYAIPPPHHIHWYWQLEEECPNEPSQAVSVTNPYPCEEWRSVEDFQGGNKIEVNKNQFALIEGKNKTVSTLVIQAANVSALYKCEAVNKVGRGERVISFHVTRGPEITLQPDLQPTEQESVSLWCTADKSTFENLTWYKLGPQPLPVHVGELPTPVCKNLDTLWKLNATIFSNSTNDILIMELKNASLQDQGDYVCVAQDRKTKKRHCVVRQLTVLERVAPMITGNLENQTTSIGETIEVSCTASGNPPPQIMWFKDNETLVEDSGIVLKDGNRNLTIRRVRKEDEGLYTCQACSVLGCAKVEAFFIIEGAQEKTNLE
The experiment in a line: ELISA, rhesus VEGFR2-his coated, anti-human Fc-HRP. How it is done: (§1) Same protocol of Example 2 antibody screening by ELISA assay. Briefly, 0.5 μg/ml hVEGFR2-his was coated and serially diluted purified antibodies would bind to coated antigen. Using HRP conjugated goat anti-mouse Fc antibody could detect binding signals of each antibody.
(§2) Same protocol of Example 4 except using HRP conjugated goat anti-human Fc antibody as secondary antibody. Binding to hVEGFR2-his and rhesus VEGFR2-his (Acrobiosystems, Cat #VE2-C52H3) were also analyzed head-to-head.
A general note: In an ELISA, binding on a coated surface is turned into a signal by an enzyme label.

In assay [2] the target is T2, Recombinant Human VEGFR2/KDR Protein, His tag (hVEGFR2-his) (human, UniProt P35968 20-764).
T2 construct: Expressed in HEK293, bought from ACRO Biosystems; also called human VEGFR2-his; Human VEGFR2/KDR-His
The assay can be described thus: competition ELISA: VEGF-A coated (0.25 ug/ml), antibody mixed with VEGFR2, detection with mouse anti-VEGFR2 serum and anti-mouse Fc-HRP; blocked ligand VEGF-A. How it is done: (§3) For this assay, 0.25 μg/ml VEGF-A was coated on ELISA plate before a mixture of chimeric antibodies and VEGFR2 were added. To detect free VEGF-A (not bind to VEGFR2), 1:1000 diluted mouse serum (mouse previous immunized with human VEGFR2) were added and HRP conjugated goat anti-mouse Fc antibody was used as secondary antibody.

The target of assay [3] is T2, Recombinant Human VEGFR2/KDR Protein, …. The assay can be described thus: ELISA, hVEGFR2-his coated (0.5 ug/ml), anti-human Fc-HRP. The protocol:
as §1, §2

Assay [4] addresses T3, human VEGFR2 on HUVEC cells (human, UniProt P35968 20-1356).
T3 construct: also called hVEGFR2 on HUVEC
The experiment in a line: flow cytometry on HUVEC cells, percent shifted cells (Shift %), anti-human IgG-PE. On the technique in general: Flow cytometry measures light scatter and fluorescence of single cells or particles in a stream.

Assay [5] concerns the target T2, Recombinant Human VEGFR2/KDR Protein, …. The experiment in a line: ELISA, hVEGFR2-his coated, anti-human Fc-HRP. The protocol: as §2
(§4) Same protocol of Example 9.

The target is the same in assay [6]. The experiment in a line: SPR (Biacore), antibody captured by anti-Fc, antigen 2.5-80 nM. The protocol:
A CM5 sensor chip was activated in each flow cell by 7-min injection (10 μl/min) of freshly prepared 1:1 50 mM N-hydroxysuccinimide (NHS): 200 mM 1-ethyl-3-(3-dimethylaminopropyl)-carbodiimide (EDC). Then anti-human Fc antibody (GE Healthcare) in a concentration of 10 μg/ml in 10 mM sodium acetate buffer PH 5.0 was injected onto the activated chip at 10 μl/min (HBS-EP running buffer: 10 mM HEPES, 150 mM NaCl, 3.4 mM EDTA, 0.005% surfactant P20, pH 7.4). The remaining active coupling sites were blocked by 7 min injection of 1M ethanolamine at 10 μl/min. The immobilization level of each flow cell is ˜9000RU. Antibodies were captured in FC2 by anti-human Fc IgG or anti-mouse Fc (GE Healthcare) to 200˜300RU. FC1 was used as the reference cell. Antigen was injected at varying concentrations (2.5 nM, 5 nM, 10 nM, 20 nM, 40 nM and 80 nM) after capture of antibody. The association time for antibody binding antigen is 180s. Surface Regeneration condition is 120s at 10 μl/min in Gly pH1.5. The signals with captured antibody subtracted from those without captured antibody were calculated with Biacore X100 evaluation software ver. 2.0 (Biacore).
(In general: SPR reads the build-up and loss of mass on a sensor chip optically.)

For assay [7] the target is unchanged. The assay can be described thus: ELISA, human VEGFR2-his coated, anti-human Fc-HRP; antibody made in CHO cells.
The target in assay [8] is T1, Recombinant Rhesus macaque VEGFR2/KDR …. The experiment in a line: ELISA, rhesus VEGFR2-his coated, anti-human Fc-HRP; antibody made in CHO cells.
The target of another assay is T4, human VEGFR3 protein (human, UniProt P35916 25-776).
T4 construct: also called Sino Biological 10806-H08H
T4 sequence (looked up): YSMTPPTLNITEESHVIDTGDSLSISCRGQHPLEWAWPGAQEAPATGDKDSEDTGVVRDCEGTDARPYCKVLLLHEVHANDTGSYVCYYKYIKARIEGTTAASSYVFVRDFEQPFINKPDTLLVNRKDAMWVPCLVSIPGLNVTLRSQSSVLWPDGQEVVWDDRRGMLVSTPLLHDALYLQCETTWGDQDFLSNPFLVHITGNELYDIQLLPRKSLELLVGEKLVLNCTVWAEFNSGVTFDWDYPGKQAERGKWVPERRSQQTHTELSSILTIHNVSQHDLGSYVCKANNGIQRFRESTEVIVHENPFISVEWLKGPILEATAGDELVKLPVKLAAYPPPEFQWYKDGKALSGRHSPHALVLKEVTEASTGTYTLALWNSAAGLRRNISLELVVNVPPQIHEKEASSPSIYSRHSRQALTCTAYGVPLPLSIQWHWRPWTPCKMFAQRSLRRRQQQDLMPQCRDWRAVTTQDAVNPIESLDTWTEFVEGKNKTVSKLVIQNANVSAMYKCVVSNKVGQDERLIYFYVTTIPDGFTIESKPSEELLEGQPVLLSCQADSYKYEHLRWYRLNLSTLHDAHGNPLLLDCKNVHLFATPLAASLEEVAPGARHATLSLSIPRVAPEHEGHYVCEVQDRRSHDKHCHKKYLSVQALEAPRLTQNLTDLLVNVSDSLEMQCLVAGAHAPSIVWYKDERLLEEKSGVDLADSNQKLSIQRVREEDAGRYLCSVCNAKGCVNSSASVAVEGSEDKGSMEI
The assay can be described thus: ELISA, 1 µg/ml antigen coated, 1 µg/ml antibody. How it is done: (§5) Briefly, 1 μg/ml human VEGFR1 (Sino Biological, cat #10136-H08H), VEGFR2 (Acrobiosystem, cat #KDR-H5227) and VEGFR3 (Sino Biological, cat #10806-H08H) protein were coated overnight at 4° C. 1 μg/ml humanized antibodies (48-H3L1 and 54-H2L1, produced in CHO cells or Ramucirumab from Eli Lilly Germany, lot #20150819) were added for binding to coated antigen. Secondary antibody HRP conjugated goat anti-human Fc antibody were added for detection of binding signal.

The next assay deals with T5, human VEGFR1 protein (human, UniProt P17948 27-756).
T5 construct: also called Sino Biological 10136-H08H
The experiment in a line: ELISA, 1 µg/ml antigen coated, 1 µg/ml antibody. How it is done:
as §5

The target of assay [9] is T1, Recombinant Rhesus macaque VEGFR2/KDR …. The assay can be described thus: competition ELISA: VEGF-A coated (0.25 ug/ml), antibody titrated together with 1 ug/ml rhesus VEGFR2, detection with mouse anti-VEGFR2 serum and anti-mouse Fc-HRP; blocked ligand VEGF-A. The protocol:
as §3
(§6) Same protocol of Example 10. Briefly, 0.25 μg/ml VEGF-A was coated overnight at 4° C. After blocking, serial diluted 54-H2L1, 48-H3L1, Ramucirumab and 1 μg/ml human VEGFR2 or rhesus VEGFR2 were added at the same time for 2 hour-incubation. After wash, mouse serum containing polyclone VEGFR2 antibody and HRP conjugated goat anti-mouse Fc antibody were added for detection of free VEGF-A coated on the plates (see FIGS. 13A and 13B).

Assay [10] addresses T2, Recombinant Human VEGFR2/KDR Protein, …. The assay can be described thus: ELISA, hVEGFR2-his coated, anti-human Fc-HRP; antibody made in 293T cells. The protocol: as §2, §4
For assay [11] the target is unchanged. The experiment in a line: competition ELISA: VEGF-A coated (0.25 ug/ml), antibody titrated together with 1 ug/ml human VEGFR2, detection with mouse anti-VEGFR2 serum and anti-mouse Fc-HRP; blocked ligand VEGF-A. The protocol: as §3, §6
The target of assay [12] is T3, human VEGFR2 on HUVEC cells. The assay can be described thus: flow cytometry on HUVEC cells, MFI, anti-human IgG (H+L)-PE. The protocol: Same methods with Example 11. Briefly, Log phase HUVEC cells were collected and added to each tube. Then 100 μl/tube serial diluted humanized antibodies in FACS buffer were added and kept at 4° C. for 1 hr. Binding of antibodies to HUVEC was detected by PE signal of the 2nd antibody (anti-hIgG (H+L)-PE), which was added after the 1st antibodies. (see FIG. 15).

Where a chain is given by its changes, count along the chain named.

T5 sequence (P17948 27-756 limits assumed): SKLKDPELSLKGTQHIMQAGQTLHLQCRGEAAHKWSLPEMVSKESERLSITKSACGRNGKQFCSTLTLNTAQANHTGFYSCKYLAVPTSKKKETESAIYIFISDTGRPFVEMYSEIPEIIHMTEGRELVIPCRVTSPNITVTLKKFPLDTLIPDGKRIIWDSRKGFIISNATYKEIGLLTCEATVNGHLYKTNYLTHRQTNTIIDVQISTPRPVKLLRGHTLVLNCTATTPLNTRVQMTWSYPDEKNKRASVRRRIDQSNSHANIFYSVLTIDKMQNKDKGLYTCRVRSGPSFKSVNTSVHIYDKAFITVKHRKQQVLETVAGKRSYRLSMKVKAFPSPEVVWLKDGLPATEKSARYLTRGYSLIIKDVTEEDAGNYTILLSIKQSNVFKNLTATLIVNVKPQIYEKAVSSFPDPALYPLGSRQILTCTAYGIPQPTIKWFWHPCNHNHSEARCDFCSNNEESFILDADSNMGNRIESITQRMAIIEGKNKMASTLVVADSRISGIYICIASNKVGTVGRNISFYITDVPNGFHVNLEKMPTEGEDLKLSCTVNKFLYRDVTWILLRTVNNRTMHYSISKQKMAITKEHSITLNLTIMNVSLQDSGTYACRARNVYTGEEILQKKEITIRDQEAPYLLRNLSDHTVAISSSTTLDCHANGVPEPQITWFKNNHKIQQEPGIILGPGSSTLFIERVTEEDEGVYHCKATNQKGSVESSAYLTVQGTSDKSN

B1: 002C (chimeric 002) (antibody, V domains shown)
VH: QVQLQQSGPELVKPGASVKISCKASGYAFSSSWMNWVKQRPGEGLEWIGRIFPGDGDTYYNGKFQVKATLTADKSSSTAYMQLSSLTSEDSAVYFCAIFLDTSGRYVDYWGQGTTLTISS
VL: DIVMTQSHKFMSTSVGDRVSITCKASQDVNTAVAWYQQKPGQSPKLLIYSASYRYIGVPDRFTGSGSGTDFTFTISSVQSEDLTVYYCQQHYRAPLTFGSGTKLELK
notes: Mouse variable regions cloned into expression vector pCP-Hck/Hcg1 (human constant regions; detected with anti-human Fc)
For the molecule B1, the EC50 in assay [1] was determined as 0.0209 µg/mL; in assay [3], 0.0308 µg/mL; in assay [4], 0.0823 µg/mL. Further, in assay [2], the IC50 was 2.11 µg/mL.

B2: 042C (chimeric 042) (antibody, V domains shown)
VH: EVQLVESGGDLVKPGGSLKLSCTASGFSFSIYGMSWVRQTPDKRLEWVASISVGGSYTYYADSVEGRFTISRENAKNTLYLQMNSLKSEDTALYYCARELDGNYDYWGQGTSLTVSS
VL: DIVITQNELSNPVTFGESVSISCRSSKSLLYKDGKTYLNWFLQRPGQSPQLLIYLMSTRASGVSDRFSGSGSGTDFTLEISRVKAEDVGVYYCQQLVEYPFTFGSGTKLEIK
notes: Chimeric antibody with human constant regions (vector pCP-Hck/Hcg1)
B2: the EC50 in assay [1] came to 0.0299 µg/mL; in assay [3], 0.015 µg/mL; in assay [4], 0.157 µg/mL. The IC50 in [2] worked out at 0.148 µg/mL.

B3: 054C (chimeric 054) (antibody, V domains shown)
VH: B2 VH with T23A, S28T, I31M, V53I, T69I, Y80F, S112T
VL: B2 VL with D1H, V3M, N7D, V90I
notes: as for B2
Take B3: the EC50 in [1] was found to be 0.0168 µg/mL; in assay [5], 0.0186 µg/mL; in [3] it was 0.0189 µg/mL; in [4], 0.0875 µg/mL. Also, the IC50 in assay [2] was 0.1 µg/mL. In assay [6], the Kd was found to be 2.45 nM. Further, in [6], the dissociation rate constant (koff) worked out at 0.000113 s⁻¹. The kon in assay [6] worked out at 46000 M⁻¹ s⁻¹.

B4: 048C (chimeric 048) (antibody, V domains shown)
VH: B2 VH with T23A, S28T, I31M, V53I, Y80F, L100M, Q109H, S112T
VL: B2 VL with I2V, V3M, N7D, V90I
notes: as for B2
As to B4, the figures for the half-maximal effective concentration (EC50) in assay [1], in assay [5] and in [3] were 0.0101 µg/mL, 0.00574 µg/mL and 0.0053 µg/mL, respectively. The IC50 in assay [2] was determined as 0.09 µg/mL.

B5: 48-H3L1 (humanized Mab48) (antibody, human IgG1, V domains shown)
VH: EVQLVESGGGLVKPGGSLRLSCAASGFTFSMYGMSWVRQAPGKRLEWVASISIGGSYTYYADSVKGRFTISRDNAKNTLYLQMNSLRAEDTAVYYCAREMDGNYDYWGHGTTLTVSS
VL: B2 VL with N7D, N11L, E79K, K84E, V90I
notes: also called 48-H3L1 (CHO)
Turning to B5, the values for the EC50 in [7], in assay [8] and in [10] were 0.00899 µg/mL, 0.00864 µg/mL and 0.0205 µg/mL, respectively. Further, the binding result with human VEGFR3 protein and with human VEGFR1 protein was “no binding (tested: 1 µg/ml)” each time. Also, the half-maximal inhibitory concentration (IC50) in [9] is 0.833 µg/mL; in assay [11], 0.727 µg/mL. Also, in assay [12], the “EC50 (read off the curve)” value is roughly 0.2 µg/mL.

Broadly, the EC50 is the concentration at which the effect is half-maximal. By IC50 is commonly meant the concentration that gives 50% inhibition. As usually defined, the Kd is a measure of binding affinity in units of concentration. A word on the koff: it is a measure of how fast the partners let go of each other. Broadly, the kon is the second-order rate constant of association. A word on the EC50 (read off the curve): it is the concentration needed to bring the measured effect to its halfway point.
